This note sets out measurements from patent publication US20230201365A1, “MODIFIED CD20 ANTIBODIES AND USES THEREOF” (Bright Peak Therapeutics AG, priority 2021, published 2023).

The EC50 is the midpoint of the concentration-response curve. The low end stands for greater potency, the high end for weaker potency.

Test [1] addresses T1, hu CD20 (Homo sapiens, UniProt P11836).
T1 sequence (P11836 1-297): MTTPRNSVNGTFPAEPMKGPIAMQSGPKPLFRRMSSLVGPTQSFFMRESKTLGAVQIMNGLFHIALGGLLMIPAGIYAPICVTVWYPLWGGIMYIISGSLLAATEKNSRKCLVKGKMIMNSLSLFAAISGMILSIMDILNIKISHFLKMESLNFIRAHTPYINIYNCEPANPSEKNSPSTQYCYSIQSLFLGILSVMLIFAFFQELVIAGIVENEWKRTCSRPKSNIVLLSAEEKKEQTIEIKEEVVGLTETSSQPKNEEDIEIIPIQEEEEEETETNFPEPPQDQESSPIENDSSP
The experiment in a line: CD20 binding ELISA. Here is the method:
The interaction of the unmodified and of conjugated anti-CD20 antibodies with CD20 were measured by ELISA assay. […] Plates were washed four times with 100 μl of PBS-0.02% Tween20. and blocked with 25 μl of PBS-0.02% Tween20-1% BSA at 37° C. with shaking at 600 RPM, for 1 h. Plates were then washed four times with 100 μl of PBS-0.02% Tween20. […] Plates were then washed four times with 100 μl of PBS-0.02% Tween20. 25 ul of Streptavidin-Horseradish peroxidase (#RABHRP3, Merck, Buchs, Switzerland) diluted at 1:500 into PBS-0.02% Tween20-0.1% BSA were added to each well and incubated at room temperature for 30 min. Plates were then washed four times with 100 μl of PBS-0.02% Tween20. […] ELISA signal is then measured at 450 nm on an ENSPIRE® plate reader from Perkin Elmer (Schwerzenbach, Switzerland).
A general note: An ELISA detects its analyte on a solid surface through an enzyme-linked reagent.

The target of test [2] is T2, Human FcRn (Homo sapiens, UniProt P55899).
T2 construct: purchased PerkinElmer AL3095C
The test can be described thus: FcRn binding AlphaLISA. The note with it: hu FcRN binding aLISA. On the procedure: Human IgG Conjugated Acceptor Beads (2×) and Streptavidin (SA) Donor Beads were diluted to reach final concentrations of 5 μg/ml.
To wells in the assay plates, 10 ul of diluted antibodies, 10 ul of diluted FcRn, 20 ul of human IgG conjugated Acceptor beads, and SA-Donor beads were added.
A general note: Alpha assays give light when donor and acceptor beads are brought close together.

Test [3] addresses T3, hu FcγRI (CD64) (Homo sapiens, UniProt P12314).
T3 construct: purchased R&D Systems 1257-FC-050
The experiment in a line: Fc gamma receptor binding ELISA. Here is the method: (§1) To analyze Fc Receptor gamma binding test molecules were diluted to 2.5 ug/ml in PBS and plates were coated overnight at 4° C. The next day the assay plates were washed four times with 100 ul of wash buffer: PBS+0.02% Tween 20 and blocked with PBS+1% BSA, for one hour at 37° C., with shaking at 600 RPM. The blocked plates were then washed four times with 100 ul wash buffer. Diluted FcRgamma (Reagents listed, below) was freshly diluted in wash buffer. Plates were then incubated with 25 ul of diluted Fc for two hours with shaking at 600 RPMs, then washed with 100 ul wash buffer, four times. The wells were then incubated with 25 ul of either 1:500 diluted streptavidin-Horseradish peroxidase (HRP) for detection of human FcgR or 1:500 diluted Anti-HIS tag antibody-HRP in wash buffer. The HPR detection molecules were incubated in the wells at room temperature for one hour with shaking at 600 RPMs. Plate wells were washed with 100 ul of wash buffer, four times. Plates were detected using the chromogenic HRP substrate 3,3′,5,5;-tetramethylbenzidine (TMB). Samples were read using a spectrophotometer plate reader with OD set to 450 nm.

Test [4] concerns the target T4, hu FcγRIII (CD16a) (Homo sapiens, UniProt P08637).
T4 construct: purchased R&D Systems 4325-FC-050
The test can be described thus: Fc gamma receptor binding ELISA. On the procedure: as §1

Test [5] has as its target T5, hu FcγRIIb (CD32b) (Homo sapiens, UniProt P31994).
T5 construct: Avi-tag; purchased R&D Systems AVI1875-050
T5 sequence (P31994 43-310): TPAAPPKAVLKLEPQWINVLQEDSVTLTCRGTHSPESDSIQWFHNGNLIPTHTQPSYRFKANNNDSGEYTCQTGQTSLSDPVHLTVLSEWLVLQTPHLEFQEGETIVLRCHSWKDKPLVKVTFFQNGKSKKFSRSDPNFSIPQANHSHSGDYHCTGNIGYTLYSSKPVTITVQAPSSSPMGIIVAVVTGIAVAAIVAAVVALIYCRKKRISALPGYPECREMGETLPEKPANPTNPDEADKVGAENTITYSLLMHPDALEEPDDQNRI
The experiment in a line: Fc gamma receptor binding ELISA. On the procedure:
as §1

Test [6] addresses T6, mu FcγRI (CD64) (Mus musculus, UniProt P26151).
T6 construct: purchased R&D Systems 2074-FC-050
T6 sequence (P26151 25-404): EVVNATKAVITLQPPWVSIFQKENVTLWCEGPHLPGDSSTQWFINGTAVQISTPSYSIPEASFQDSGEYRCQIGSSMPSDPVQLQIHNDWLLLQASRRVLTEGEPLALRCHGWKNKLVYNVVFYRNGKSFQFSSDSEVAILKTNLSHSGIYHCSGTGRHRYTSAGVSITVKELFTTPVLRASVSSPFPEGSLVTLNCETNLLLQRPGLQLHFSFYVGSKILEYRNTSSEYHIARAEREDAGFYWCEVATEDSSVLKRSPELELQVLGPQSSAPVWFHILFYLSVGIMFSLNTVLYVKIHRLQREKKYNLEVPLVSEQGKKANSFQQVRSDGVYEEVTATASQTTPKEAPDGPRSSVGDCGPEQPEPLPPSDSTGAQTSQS
The experiment in a line: Fc gamma receptor binding ELISA. On the procedure: as §1

The target of test [7] is T7, mu FcγRIII (CD16) (Mus musculus, UniProt P08508).
T7 construct: purchased R&D Systems 1960-FC-050
T7 sequence (P08508 31-261): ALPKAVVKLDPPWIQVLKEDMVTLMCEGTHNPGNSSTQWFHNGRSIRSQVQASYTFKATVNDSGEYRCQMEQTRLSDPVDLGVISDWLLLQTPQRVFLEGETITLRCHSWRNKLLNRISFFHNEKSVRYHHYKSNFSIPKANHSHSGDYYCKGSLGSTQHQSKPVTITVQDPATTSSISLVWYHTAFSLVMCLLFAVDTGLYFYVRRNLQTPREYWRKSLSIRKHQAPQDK
The test can be described thus: Fc gamma receptor binding ELISA. Here is the method:
as §1

Test [8] has as its target T8, mu FcγRIV (CD16-2) (Mus musculus, UniProt A0A0B4J1G0).
T8 construct: purchased R&D Systems 1974-CD-050
T8 sequence (A0A0B4J1G0 21-249): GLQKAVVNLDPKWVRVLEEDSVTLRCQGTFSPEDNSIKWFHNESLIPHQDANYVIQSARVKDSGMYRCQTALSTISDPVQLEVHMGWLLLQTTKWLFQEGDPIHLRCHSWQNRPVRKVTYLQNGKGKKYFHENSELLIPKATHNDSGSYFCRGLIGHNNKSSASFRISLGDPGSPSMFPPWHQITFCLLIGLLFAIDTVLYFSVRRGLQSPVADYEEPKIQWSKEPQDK
The experiment in a line: Fc gamma receptor binding ELISA. Conditions: mu FcγRIV (CD16-2) ELISA. On the procedure:
as §1

The subject of test [9] is Raji cells. The experiment in a line: Antibody-dependent cell-mediated cytotoxicity (ADCC) bioassay. The format is cell-based, human. Conditions: 25:1 PBMC:Raji, FIG. 6.
Experimental: To determine the effectiveness of antiCD20 IL-2 immunoconjugates in activating immune cell function, an ADCC assay was employed. Human peripheral blood mononuclear cells (hPBMC) and target cells (Raji cells expressing HiBiT) were purchased from Promega as a kit (PBMC ADCC Bioassay Kit Raji, # CS3055A17). […] Once the cells recovered cells were counted. Raji cells were suspended at a concentration of 2×10^5 per ml, and PBMCs were suspended at 5×10^6 per ml. The killing assay was conducted in a 96 well U-bottom plate. Cells were seeded at a ratio of 25:1 Effector cell (PBMC):antiCD20 Target cell (Raji). Plates were incubated for 24 hours at 37 C in 5% CO2. Cell mixtures were treated with serial dilutions of immunocytokines to induce ADCC and placed back in the incubator for an additional 24 hours. Tissue culture supernatants from wells were assayed using Nano-Glo® HiBiT Extracellular assay detection kit.
Test [10] has as its system B cells. The test can be described thus: B cell depletion in hCD20 transgenic C57BL/6 mice. The format is in vivo. The note with it: 5 mg/kg single intraperitoneal injection on Day 0, FIG. 7A.
Experimental: Animal Groupings and administration: 9 animals were randomly enrolled into three study groups based on the body weight 5 days before administration (day −5). Each group consists of 3 mice. Single doses were administered 5 day post grouping (Day 0).
Sample collection: 100 μL whole blood were collected with anticoagulant (DETA-2K) for flow cytometry. Collection time points: Day −5, Day 6, Day 9, Day 14, and Day 21.
Flow cytometry: Preparation of single cell suspensions: For the treatment of spleen samples, the spleen was transferred to a 35 mm culture dish, and then ground with a sterile syringe tail. The cells were washed and centrifuged at 500 g for 5 min at 4° C. The cell pellet was resuspended with 2 ml of red blood cell lysis buffer and incubated for 5-8 min at room temperature. A volume 10 mL of PBS was added to the cell suspension to stop the lysing, and centrifuged at 500 g for 5 min at 4° C. The cells were counted using a blood cell counting chamber. For the treatment of the blood samples, 100 μL of the blood sample was transferred into a 1.5 mL EP tube. To this, 1.4 mL of red blood cell lysis buffer is added, and mixed by inversion. The lysis is carried out for 5-8 min at room temperature. The lysed blood sample is centrifuge at 500 g for 5 min at 4° C. The resultant cell pellet is resuspended in PBS to the required volume for flow cytometry.
The flow cytometry protocol is as follows. […]

T3 sequence (P12314 16-374): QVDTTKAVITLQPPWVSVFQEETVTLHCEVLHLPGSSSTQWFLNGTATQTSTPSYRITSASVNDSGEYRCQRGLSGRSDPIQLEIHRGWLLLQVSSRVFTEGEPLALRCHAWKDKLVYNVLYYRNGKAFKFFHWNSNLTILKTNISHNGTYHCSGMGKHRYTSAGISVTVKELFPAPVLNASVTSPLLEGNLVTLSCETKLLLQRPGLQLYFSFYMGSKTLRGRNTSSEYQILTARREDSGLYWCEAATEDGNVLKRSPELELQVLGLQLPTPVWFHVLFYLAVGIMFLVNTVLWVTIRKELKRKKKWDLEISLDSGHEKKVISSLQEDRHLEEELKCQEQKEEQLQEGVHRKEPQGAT
T2 sequence (P55899 24-297 limits assumed): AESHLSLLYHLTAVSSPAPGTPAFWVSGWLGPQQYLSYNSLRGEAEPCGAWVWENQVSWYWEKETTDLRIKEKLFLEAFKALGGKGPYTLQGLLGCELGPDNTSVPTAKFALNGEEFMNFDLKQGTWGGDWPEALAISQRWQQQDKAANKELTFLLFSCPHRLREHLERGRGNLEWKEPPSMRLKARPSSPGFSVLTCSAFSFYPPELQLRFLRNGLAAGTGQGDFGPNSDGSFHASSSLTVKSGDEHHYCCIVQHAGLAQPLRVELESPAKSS
T2 sequence (P61769 21-119 partner): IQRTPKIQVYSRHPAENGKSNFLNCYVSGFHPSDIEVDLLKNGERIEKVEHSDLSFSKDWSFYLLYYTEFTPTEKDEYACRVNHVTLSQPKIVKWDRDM
T4 sequence (P08637 17-254): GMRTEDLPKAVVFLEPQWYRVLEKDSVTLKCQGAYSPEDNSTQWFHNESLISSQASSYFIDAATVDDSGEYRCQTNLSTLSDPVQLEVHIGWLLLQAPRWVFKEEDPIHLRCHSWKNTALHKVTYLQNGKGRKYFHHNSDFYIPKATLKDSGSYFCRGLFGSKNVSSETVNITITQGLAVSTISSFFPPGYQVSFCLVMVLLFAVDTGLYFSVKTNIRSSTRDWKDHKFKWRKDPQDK

As for “Anti-CD20 Antibody: parent anti-CD20 antibody biosimilar Rituximab, unconjugated”, the EC50 in test [1] amounted to 0.08 nM; in test [2] it was 4 nM; in [3], 0.23 nM; in test [4], 185 nM; in [5], 880 nM; in test [6], 35 nM. For the same substance, the EC50 in [7] was 133 nM; in test [8], 20 nM. Further, in test [9], the “ADCC-targeted cell killing of Raji cells” value is recorded as “Less cell killing overall”. For the same substance, in [10], the “depletion of B cells” value was “substantial ability to deplete B cells”.
